Data on 7 sequences can be found in the supplement of paper PMC5998384.

Data set [1] concerns HeLa Kyoto. Put plainly: solubility in G1/S (NP-40 vs SDS abundance) (log2 ratio); higher = more soluble. The conditions noted are these: cell cycle stage: G1/S.
Data set [2] deals with HeLa Kyoto. In words: solubility change mitosis vs G1/S (difference of NP-40 vs SDS log2 ratios) (log2 ratio difference); higher = more soluble in mitosis.
Data set [3] deals with HeLa Kyoto. In words: thermal stability score vs G1/S (z-score of summed log2 fold changes over temperatures); higher = more thermally stable than in G1/S.
Where [4] appears, read: cell cycle stage: early G1 (4.5 h after nocodazole release).
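Throughout, for solubility change mitosis vs G1/S (difference of NP-40 vs SDS log2 ratios): synchronized HeLa Kyoto cells (double thymidine block for G1/S, nocodazole release for mitosis), protein amounts in NP-40 versus SDS lysates quantified by mass spectrometry, three biological replicates.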
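Throughout, for solubility in G1/S (NP-40 vs SDS abundance): HeLa Kyoto cells arrested at G1/S by double thymidine block, proteins quantified by TMT10plex mass spectrometry in mild NP-40 versus SDS extracts, three biological replicates.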
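Throughout, for thermal stability score vs G1/S (z-score of summed log2 fold changes over temperatures): synchronized HeLa Kyoto cells, proteins quantified by TMT10plex mass spectrometry, three biological replicates, mitosis taken 0.5 h after nocodazole release, G1/S directly after double thymidine block.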

As to “MAVSERRGLGRGSPAEWGQRLLLVLLLGGCSGRIHQLALTGEKRADIQLNSFGFYTNGSLEVELSVLRLGLREAEEKSLLVGFSLSRVRSGRVRSYSTRDFQDCPLQKNSSSFLVLFLINTKDLQVQVRKYGEQKTLFIFPGLLPEAPSKPGLPKPQATVPRKVDGGGTSAASKPKSTPAVIQGPSGKDKDLVLGLSHLNNSYNFSFHVVIGSQAEEGQYSLNFHNCNNSVPGKEHPFDITVMIREKNPDGFLSAAEMPLFKLYMVMSACFLAAGIFWVSILCRNTYSVFKIHWLMAALAFTKSISLLFHSINYYFINSQGHPIEGLAVMYYIAHLLKGALLFITIALIGSGWAFIKYVLSDKEKKVFGIVIPMQVLANVAYIIIESREEGASDYVLWKEILFLVDLICCGAILFPVVWSIRHLQDASGTDGKVAVNLAKLKLFRHYYVMVICYVYFTRIIAILLQVAVPFQWQWLYQLLVEGSTLAFFVLTGYKFQPTGNNPYLQLPQEDEEDVQMEQVMTDSGFREGLSKVNKTASGRELL [GPR108]”, in the data set on HeLa Kyoto [1], the “solubility in G1/S (log2)” value amounted to 0.04. For the same sequence, in the data set with HeLa Kyoto [2], the “solubility change mitosis (log2)” value is -0.16. Further, the thermal stability score in the data set on HeLa Kyoto [3] (setting [4]) was -3.36; in the data set on HeLa Kyoto [3] (cell cycle stage: mitosis), -3.48.
On the same counts, the results for “MDANSKDKPPETKESAMNNAGNASFILGTGKIVTPQKHAELPPNPCTPDTFKSPLNFSTVTVEQLGITPESFVRNSAGKSSSYLKKCRRRSAVGARGSPETNHLIRFIARQQNIKNARKSPLAQDSPSQGSPALYRNVNTLRERISAFQSAFHSIKENEKMTGCLEFSEAGKESEMTDLTRKEGLSACQQSGFPAVLSSKRRRISYQRDSDENLTDAEGKVIGLQIFNIDTDRACAVETSVDLSEISSKLGSTQSGFLVEESLPLSELTETSNALKVADCVVGKGSSDAVSPDTFTAEVSSDAVPDVRSPATPACRRDLPTPKTFVLRSVLKKPSVKMCLESLQEHCNNLYDDDGTHPSLISNLPNCCKEKEAEDEENFEAPAFLNMRKRKRVTFGEDLSPEVFDESLPANTPLRKGGTPVCKKDFSGLSSLLLEQSPVPEPLPQPDFDDKGENLENIEPLQVSFAVLSSPNKSSISETLSGTDTFSSSNNHEKISSPKVGRITRTSNRRNQLVSVVEESVCNLLNTEVQPCKEKKINRRKSQETKCTKRALPKKSQVLKSCRKKKGKGKKSVQKSLYGERDIASKKPLLSPIPELPEVPEMTPSIPSIRRLGSGYFSSNGKLEEVKTPKNPVKRKDLLRHDPDLHMHQGYDKYDVSEFCSYIKSSSSLGNATSDEDPNTNIMNINENKNIPKAKNKSESENEPKAGTDSPVSCASVTEERVASDSPKPALTLQQGQEFSAGGQNAENLCQFFKISPDLNIKCERKDDFLGAAEGKLQCNRLMPNSQKDCHCLGDVLIENTKESKSQSEDLGRKPMESSSVVSCRDRKDRRRSMCYSDGRSLHLEKNGNHTPSSSVGSSVEISLENSELFKDLSDAIEQTFQRRNSETKVRRSTRLQKDLENEGLVWISLPLPSTSQKAKRRTICTFDSSGFESMSPIKETVSSRQKPQMAPPVSDPENSQGPAAGSSDEPGKRRKSFCISTLANTKATSQFKGYRRRSSLNGKGESSLTALERIEHNGERKQ [CDCA2]” are -0.581, 0.243, 0.00387 and -1.54.
For “MDEETRHSLECIQANQIFPRKQLIREDENLQVPFLELHGESTEFVGRAEDAIIALSNYRLHIKFKESLVNVPLQLIESVECRDIFQLHLTCKDCKVIRCQFSTFEQCQEWLKRLNNAIRPPAKIEDLFSFAYHAWCMEVYASEKEQHGDLCRPGEHVTSRFKNEVERMGFDMNNAWRISNINEKYKLCGSYPQELIVPAWITDKELESVSSFRSWKRIPAVIYRHQSNGAVIARCGQPEVSWWGWRNADDEHLVQSVAKACASDSRSSGSKLSTRNTSRDFPNGGDLSDVEFDSSLSNASGAESLAIQPQKLLILDARSYAAAVANRAKGGGCECPEYYPNCEVVFMGMANIHSIRRSFQSLRLLCTQMPDPGNWLSALESTKWLHHLSVLLKSALLVVHAVDQDQRPVLVHCSDGWDRTPQIVALAKLLLDPYYRTIEGFQVLVEMEWLDFGHKFADRCGHGENSDDLNERCPVFLQWLDCVHQLQRQFPCSFEFNEAFLVKLVQHTYSCLFGTFLCNNAKERGEKHTQERTCSVWSLLRAGNKAFKNLLYSSQSEAVLYPVCHVRNLMLWSAVYLPCPSPTTPVDDSCAPYPAPGTSPDDPPLSRLPKTRSYDNLTTACDNTVPLASRRCSDPSLNEKWQEHRRSLELSSLAGPGEDPLSADSLGKPTRVPGGAELSVAAGVAEGQMENILQEATKEESGVEEPAHRAGIEIQEGKEDPLLEKESRRKTPEASAIGLHQDPELGDAALRSHLDMSWPLFSQGISEQQSGLSVLLSSLQVPPRGEDSLEVPVEQFRIEEIAEGREEAVLPIPVDAKVGYGTSQSCSLLPSQVPFETRGPNVDSSTDMLVEDKVKSVSGPQGHHRSCLVNSGKDRLPQTMEPSPSETSLVERPQVGSVVHRTSLGSTLSLTRSPCALPLAECKEGLVCNGAPETENRASEQPPGLSTLQMYPTPNGHCANGEAGRSKDSLSRQLSAMSCSSAHLHSRNLHHKWLHSHSGRPSATSSPDQPSRSHLDDDGMSVYTDTIQQRLRQIESGHQQEVETLKKQVQELKSRLESQYLTSSLHFNGDFGDEVTSIPDSESNLDQNCLSRCSTEIFSEASWEQVDKQDTEMTRWLPDHLAAHCYACDSAFWLASRKHHCRNCGNVFCSSCCNQKVPVPSQQLFEPSRVCKSCYSSLHPTSSSIDLELDKPIAATSN [MTMR3]”, in that order: -0.000164, -0.15, -0.332 and -0.143.
As to “MDGLRQRVEHFLEQRNLVTEVLGALEAKTGVEKRYLAAGAVTLLSLYLLFGYGASLLCNLIGFVYPAYASIKAIESPSKDDDTVWLTYWVVYALFGLAEFFSDLLLSWFPFYYVGKCAFLLFCMAPRPWNGALMLYQRVVRPLFLRHHGAVDRIMNDLSGRALDAAAGITRNVLQVLARSRAGITPVAVAGPSTPLEADLKPSQTPQPKDK [REEP6]”, in the data set on HeLa Kyoto [1], the “solubility in G1/S (log2)” value is -0.206. For the same sequence, the “solubility change mitosis (log2)” value in the data set with HeLa Kyoto [2] was -0.143. Besides, the values for the thermal stability score with HeLa Kyoto [3] (setting [4]) and with HeLa Kyoto [3] (cell cycle stage: mitosis) were 0.664 and -0.943, respectively.
On to “MDLDVVNMFVIAGGTLAIPILAFVASFLLWPSALIRIYYWYWRRTLGMQVRYVHHEDYQFCYSFRGRPGHKPSILMLHGFSAHKDMWLSVVKFLPKNLHLVCVDMPGHEGTTRSSLDDLSIDGQVKRIHQFVECLKLNKKPFHLVGTSMGGQVAGVYAAYYPSDVSSLCLVCPAGLQYSTDNQFVQRLKELQGSAAVEKIPLIPSTPEEMSEMLQLCSYVRFKVPQQILQGLVDVRIPHNNFYRKLFLEIVSEKSRYSLHQNMDKIKVPTQIIWGKQDQVLDVSGADMLAKSIANCQVELLENCGHSVVMERPRKTAKLIIDFLASVHNTDNNKKLD [ABHD6]”, for which the “solubility in G1/S (log2)” value in the data set with HeLa Kyoto [1] is -0.209. Also, the “solubility change mitosis (log2)” value in the data set on HeLa Kyoto [2] is -0.0832. Also, the thermal stability score with HeLa Kyoto [3] (setting [4]) was 0.51; with HeLa Kyoto [3] (cell cycle stage: mitosis) it was -0.118.
Take “MDLPVDEWKSYLLQKWASLPTSVQVTISTAETLRDIFLHSSSLLQPEDELFLKRLSKGYLVGKDSDAPLFYREEGNKKFQEKDYTGAAVLYSKGVSHSRPNTEDMSLCHANRSAALFHLGQYETCLKDINRAQTHGYPERLQPKIMLRKAECLVALGRLQEASQTISDLERNFTATPALADVLPQTLQRNLHRLKMKMQEKDSLTESFPAALAKTLEDAALREENEQLSNASSSIGLCVDPLKGRCLVATKDILPGELLVQEDAFVSVLNPGELPPPHHGLDSKWDTRVTNGDLYCHRCLKHTLATVPCDGCSYAKYCSQECLQQAWELYHRTECPLGGLLLTLGVFCHIALRLTLLVGFEDVRKIITKLCDKISNKDICLPESNNQVKTLNYGLGESEKNGNIVETPIPGCDINGKYENNYNAVFNLLPHTENHSPEHKFLCALCVSALCRQLEAASLQAIPTERIVNSSQLKAAVTPELCPDVTIWGVAMLRHMLQLQCNAQAMTTIQHTGPKGSIVTDSRQVRLATGIFPVISLLNHSCSPNTSVSFISTVATIRASQRIRKGQEILHCYGPHKSRMGVAERQQKLRSQYFFDCACPACQTEAHRMAAGPRWEAFCCNSCGAPMQGDDVLRCGSRSCAESAVSRDHLVSRLQDLQQQVRVAQKLLRDGELERAVQRLSGCQRDAESFLWAEHAVVGEIADGLARACAALGDWQKSATHLQRSLYVVEVRHGPSSVEMGHELFKLAQIFFNGFAVPEALSTIQKAEEVLSLHCGPWDDEIQELQKMKSCLLDLPPTPVGPAL [SMYD4]”: the “solubility in G1/S (log2)” value in the data set with HeLa Kyoto [1] was -0.119. Also, the “solubility change mitosis (log2)” value in the data set with HeLa Kyoto [2] was found to be 0.000145. Besides, the thermal stability score with HeLa Kyoto [3] (setting [4]) was 0.716; in the data set on HeLa Kyoto [3] (cell cycle stage: mitosis) it was 0.631.
“MDSSAVITQISKEEARGPLRGKGDQKSAASQKPRSRGILHSLFCCVCRDDGEALPAHSGAPLLVEENGAIPKQTPVQYLLPEAKAQDSDKICVVIDLDETLVHSSFKPVNNADFIIPVEIDGVVHQVYVLKRPHVDEFLQRMGELFECVLFTASLAKYADPVADLLDKWGAFRARLFRESCVFHRGNYVKDLSRLGRDLRRVLILDNSPASYVFHPDNAVPVASWFDNMSDTELHDLLPFFEQLSRVDDVYSVLRQPRPGS [CTDSP1]”: in the data set on HeLa Kyoto [1], the “solubility in G1/S (log2)” value was -0.148. In the data set with HeLa Kyoto [2], the “solubility change mitosis (log2)” value is -0.0207. The thermal stability score in the data set on HeLa Kyoto [3] (setting [4]) came to 0.748; with HeLa Kyoto [3] (cell cycle stage: mitosis), 0.982.
